Measured values: publication doi:10.1101/2024.11.27.625426 (bioRxiv, 2024)
Substitutions are numbered along the chain they refer to.

Target: unmodified NA of A/Vietnam/1203/2004 (VN04, H5N1) (Influenza A virus A/Vietnam/1203/2004 …, UniProt Q6DPL2)
Assay: ELISA
Conditions: both partners purified

B1: NCS.1.1 mAb (IgG) (antibody, V domains shown)
VH: QVQLQESGPRLVKPSETLSLTCSVSGESISSGGYYWTWIRQHPGKGLEWIGNIFDTGSTDYSPSLKTRLTISIDTSKNQFYLRLNSATAADTAVYYCARVGFSLETDRPYYLGLDVWGQGTTVTVSS
VL: DIVMTQSPLSLPVTPGEPASISCRSSQSLLHSNGYTYLDWYLQKPGQSPQLLISFTSNRASGVPDRFSGSGSGTYFTLKISRVEAEDVGVYYCMQAVQTPWTFGQGTKVEIK
notes: copies: 2 + 2
- binding result: binds

B2: NCS.1.3 mAb (IgG) (antibody, V domains shown)
VH: B1 VH with N85T
VL: B1 VL with S10T, S54Y, T56A, T99S
notes: copies: 2 + 2
- binding result: binds
